Data taken from patent US9534237B2, “Sesquiterpene synthase gene and protein” (University of Kentucky Research Foundation, priority 2003, dated 2017).
Where “and” joins values, the source holds several entries; their conditions need not be identical. Identical values can stand only once.

How the values were obtained:
[1] = pH dependence assay of reaction product specificity (GC-MS); assay type: biochemical
Experimental: Reactions to determine pH dependence were performed in glass GC-vials with 100 nM of purified enzyme, 20 mM MgCl2, 50 μM FPP (Echelon; Salt Lake City, Utah), and 100 mM buffer at various pH values; total reaction volume 500 μL. The buffers were chosen within one pH unit of the buffer's pKa (pH 5-5.5, acetate; pH 6-7, MES; pH 7.5-9, Tris; pH 9.5-10, ethanolamine; pH 10.5, CAPS). Reactions were allowed to proceed at room temperature for 30 min prior to overlaying with 500 μL of ethylacetate, vortexing for 10 sec, then direct analysis of the reaction products using an HP 6890 gas chromatograph with a 5973 mass spectrometer (Agilent Technologies, Palo Alto, Calif.) with an auto-sampler programmed to remove […] only from the organic phase. GC separations were performed on a 5%-phenyl-methylpolysiloxane column (J&M Scientific, Folsom, Calif.) of 30 m×0.25 mm i.d.×[…] with He as the carrier gas at 2 mL/min and a temperature gradient of 10° C./min from 50° C. (5-min hold) to 180° C. (4-min hold). GC/MS data was analyzed using HP-Chemstation software (version B.01.00) and integration of terpene peaks used for quantification.

[2] = Terpene synthase reaction product identification by GC-MS (incubation with FPP at pH 7.5); assay type: biochemical
Experimental: Partially purified protein was subsequently incubated with FPP at pH 7.5 using typical sesquiterpene synthase reaction conditions and the pentane extractable products examined by GC-MS (FIG. 7). Two compounds accounting for greater than 95% of the total reaction products dominated the GC profiles and were identified as beta-elemene (30%) and valencene (65%) on the basis of MS matches with authentic standards. The beta-elemene peak most certainly represents a thermal rearrangement product of germacrene A resulting from high temperature injection into the GC.
Small scale reactions of 50 μL were used for screening purposes and rate determinations. Reactions typically contained 200 mM Tris-HCl, pH 7.5, 40 mM MgCl2, 0.5 μCi [1-3H]FPP, 25-30 μM FPP and 160 nM enzyme. For kinetic determinations, 10 μL aliquots of FPP (giving final concentrations of 0.7-23 μM) were rapidly mixed with 40 μL of enzyme solution at room temperature (23° C.) and allowed to incubate for 1 minute. The reactions were terminated by addition of 150 μL, of a 100 mM KOH, 0.5 M EDTA stop solution. Reactions were extracted with 500 μL of hexane and an aliquot was taken for determination of radiolabeled hydrophobic product via liquid scintillation counting. Hexane extracted samples were not subject to silica chromatography prior to counting because background was minimal and synthase mutants could possibly produce reaction products containing alcohols, which would bind to silica. Kinetic constants were determined from direct fits of the Michaelis-Menton equation to the data using Graphpad Prism 2.01 software.
Initial synthase reaction products were examined by GC-MS. […] Pooled extracts were dried to 50 μL under a stream of nitrogen gas and 1 μL aliquots of this organic extract were analyzed by GC-MS using an HP-GCDplus (Hewlett-Packard, Palo Alto, Calif.) equipped with a DB-5 ms column, an injector temperature of 250° C. and the mass selective detector set to scan for ions within the range from 45 to 250 m/z. […]

[3] = partially purified protein incubated with FPP at pH 7.5, pentane extractable products, GC-MS

B1: CVS: citrus valencene synthase from Citrus paradisi, recombinant His-tagged protein expressed in E. coli, SEQ ID NO.: 4 (protein)
chain: MSSGETFRPTADFHPSLWRNHFLKGASDFKTVDHTATQERHEALKEEVRRMITDAEDKPVQKLRLIDEVQRLGVAYHFEKEIEDAILKLCPIYIDSNRADLHTVSLHFRLLRQQGIKISCDVFEKFKDDEGRFKSSLINDVQGMLSLYEAAYMAVRGEHILDEAIAFTTTHLKSLVAQDHVTPKLAEQINHALYRPLRKTLPRLEARYFMSMINSTSDHLYNKTLLNFAKLDFNILLEPHKEELNELTKWWKDLDFTTKLPYARDRLVELYFWDLGTYFEPQYAFGRKIMTQLNYILSIIDDTYDAYGTLEELSLFTEAVQRWNIEAVDMLPEYMKLIYRTLLDAFNEIEEDMAKQGRSHCVRYAKEENQKVIGAYSVQAKWFSEGYVPTIEEYMPIALTSCAYTFVITNSFLGMGDFATKEVFEWISNNPKVVKAASVICRLMDDMQGHEFEQKRGHVASAIECYTKQHGVSKEEAIKMFEEEVANAWKDINEELMMKPTVVARPLLGTILNLARAIDFIYKEDDGYTHSYLIKDQIASVLGDHVPF
modifications: His tag; Citrus X paradisi
- pH of transition from valencene to germacrene A as dominant reaction product ([1]; FIG. 10): 8.0 pH and ~8.2 pH
- pH of optimal germacrene A biosynthesis ([1]; FIG. 10, FPP substrate): 8.5 pH
- pH of optimal valencene biosynthesis ([1]; FIG. 10, FPP substrate): 7.0 pH
- valencene plus germacrene A (measured as β-elemene) as share of total reaction products ([1]; at all pHs, ethylacetate extracts, GC-MS): greater than 95%
- germacrene A as reaction product ([1]; between pH 6.0 to 7.0): virtually no germacrene A was detected
- beta-elemene plus valencene as share of total reaction products ([2]; pH 7.5, GC profiles): greater than 95%
- beta-elemene (thermal rearrangement product of germacrene A) as share of total reaction products [2, 3]: 30%
- valencene as share of total reaction products [2, 3]: 65%
